Results: patent US20030166196A1 (published 2003)

T1: human CD5 cell differentiation marker (human, UniProt P06127 25-495)
T1 sequence: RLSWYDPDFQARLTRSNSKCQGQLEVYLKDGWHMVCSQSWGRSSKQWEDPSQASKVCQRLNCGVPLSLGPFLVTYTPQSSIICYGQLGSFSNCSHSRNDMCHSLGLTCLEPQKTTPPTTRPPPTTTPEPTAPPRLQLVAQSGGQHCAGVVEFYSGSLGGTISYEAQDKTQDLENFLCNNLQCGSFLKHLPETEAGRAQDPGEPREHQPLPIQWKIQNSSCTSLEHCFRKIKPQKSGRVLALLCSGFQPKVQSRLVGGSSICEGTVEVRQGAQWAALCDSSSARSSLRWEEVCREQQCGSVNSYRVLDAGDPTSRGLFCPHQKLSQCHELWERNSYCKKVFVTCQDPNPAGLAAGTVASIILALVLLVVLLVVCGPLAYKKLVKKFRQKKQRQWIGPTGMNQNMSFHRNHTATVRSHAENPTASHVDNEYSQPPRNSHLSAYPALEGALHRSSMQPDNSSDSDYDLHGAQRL


Columns and labels:
[1] = biological target: T1, human CD5 cell differentiation marker; assay: cell-based or functional assay
[2] = biological target: T1, human CD5 cell differentiation marker; assay: competition with 125I-cH65 IgG on Molt-4M cells

Binder | IC50 (pMT), whole cell cytotoxicity, CEM Cells [1] [pMT] | IC50 (pMT), whole cell cytotoxicity, HSB2 Cells [1] [pMT] | binding result [2]
he3Fab-rGelA50(C44) (other) light: DIQMTQSPSSLSASVGDRVTITCRASQDINSYLSWFQQKPGKAPKTLIYRANRLESGVPSRFSGSGSGTDYTLTISSLQYEDFGIYYCQQYDESPWTFGGGTKLEIK heavy: EIQLVQSGGGLVKPGGSVRISCAASGYTFTNYGMNWVRQAPGKGLEWMGWINTHTGEPTYADSFKGRFTFSLDDSKNTAYLQINSLRAEDTAVYFCTRRGYDWYFDVWGQGTTVTVSS GLDTVSFSTKGATYITYVNFLNELRVKLKPEGNSHGIPLLRKKCDDPGKAFVLVALSNDNGQLAEIAIDVTSVYVVGYQVRNRSYFFKDAPDAAYEGLFKNTIKTRLHFGGSYPSLEGEKAYRETTDLGIEPLRIGIKKLDENAIDNYKPTEIASSLLVVIQMVSEAARFTFIENQIRNNFQQRIRPANNTISLENKWGKLSFQIRTSGANGMFSEAVELERANGKKYYVTAVDQVKPKIALLKFVDKDPK | 173 | 165 | 
he3 IgG (human-engineered H65 antibody, moderate-risk changes, ATCC HB 11206) (antibody, V domains shown, also called he3 antibody; humanized antibody) VH: EIQLVQSGGGLVKPGGSVRISCAASGYTFTNYGMNWVRQAPGKGLEWMGWINTHTGEPTYADSFKGRFTFSLDDSKNTAYLQINSLRAEDTAVYFCTRRGYDWYFDVWGQGTTVTVSS VL: DIQMTQSPSSLSASVGDRVTITCRASQDINSYLSWFQQKPGKAPKTLIYRANRLESGVPSRFSGSGSGTDYTLTISSLQYEDFGIYYCQQYDESPWTFGGGTKLEIK |  |  | binds
chimeric H65 IgG (antibody, V domains shown, also called 125I-cH65 IgG) VL: […] VH: QIQLVQSGPELKKPGETVKISCKASGYTFTNYGMNWVKQAPGKGLRWMGWINTHTGEPTYADDFKGRFAFSLETSASTAYLQINNLKNEDTATYFCTRRGYDWYFDVWGAGTTVTVSS |  |  | binds
